Tested on: SW620 cells
Test: Cell viability of SW620 cells by cell counting after treatment with folate-conjugated chimeric proteins
Format: cell-based
Settings: 5 μM, Calbindin D9k host, folate by disulfide bond via 5 kDa PEG, 48 hours
Description: (§1) FIG. 3 illustrates the effects of chimeric proteins having different host peptides and the BH3 domain of Bid on the apoptosis of SW620 cells. […] The SW620 cells were treated with 5 μM of the indicated proteins. The proteins were conjugated to folate by a disulfide bond via a 5 kDa PEG. Cell viability was measured by cell counting 48 hours after treatment with the indicated proteins. Buffer treated cells were used as a reference (100% cell viability). The error bars indicate standard deviations across five repeating experiments.
as §1, with “FIG. 4” for “FIG. 3”, “having a Calbindin D9k host peptide and” for “having”, “different” for “different host peptides and the”, “BH3 domains” for “BH3 domain of Bid”, “(100%” for “(100% cell”
FIG. 7 illustrates the effects of a chimeric protein with a Calbindin D9k host protein, a Bid or Bim BH3 domain, and a conjugated folate on SW620 cells. […] Cell viability was measured by counting cells 48 hours after treatment with the indicated proteins. […]

B1: D-Nox: chimeric protein, Calbindin D9k host with BH3 domain of Noxia, Sequence Id No. 8; tested conjugated to folate (protein)
chain: HMSTKKSPEELKRIFEKYAAKEGDPDQLSKDELKLLIQAEFPCLLKGPNTLDDLFQELDKNPAELEVEMATQLRRFGDKLNFRQKLL
modifications: folate conjugate; Chimeric Variant of human protein and a variant of a BH3 domain
notes: tested conjugated to folate
induction of apoptosis (cell viability), comparison of BH3 domains: most effective in inducing apoptosis

— patent US11459364B2, “Calbindin and BH3 domain chimeric proteins and methods for use” (ProDa Biotech LLC, priority 2014, dated 2022)
